Key:
Experiment in all cases: flow cytometry on cells
[1] = target: PD-1 expressed on Flp-In CHO cells (Homo sapiens (), UniProt Q15116)
[2] = target: PD-L1 expressed on Flp-In CHO cells (Homo sapiens (), UniProt Q9NZQ7)
[3] = target: OX40 expressed on Flp-In CHO cells (Homo sapiens (), UniProt P43489)
Sequence of OX40 expressed on Flp-In CHO cells (P43489 29-277): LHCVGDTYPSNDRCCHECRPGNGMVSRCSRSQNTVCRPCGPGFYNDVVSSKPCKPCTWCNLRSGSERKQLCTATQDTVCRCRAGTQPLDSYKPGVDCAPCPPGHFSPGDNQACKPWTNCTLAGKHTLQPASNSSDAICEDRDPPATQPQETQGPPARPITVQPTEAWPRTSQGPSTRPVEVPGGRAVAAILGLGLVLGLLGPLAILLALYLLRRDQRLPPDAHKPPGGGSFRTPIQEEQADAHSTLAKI

Sequence of PD-1 expressed on Flp-In CHO cells (Q15116 25-288): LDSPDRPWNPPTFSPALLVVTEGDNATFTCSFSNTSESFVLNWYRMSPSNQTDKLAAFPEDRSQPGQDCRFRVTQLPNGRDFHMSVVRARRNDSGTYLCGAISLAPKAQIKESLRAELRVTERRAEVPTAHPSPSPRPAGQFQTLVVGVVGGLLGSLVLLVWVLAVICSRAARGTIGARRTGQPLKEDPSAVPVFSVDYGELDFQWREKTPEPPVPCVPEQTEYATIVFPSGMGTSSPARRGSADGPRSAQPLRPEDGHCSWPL
Sequence of PD-L1 expressed on Flp-In CHO cells (Q9NZQ7 19-290): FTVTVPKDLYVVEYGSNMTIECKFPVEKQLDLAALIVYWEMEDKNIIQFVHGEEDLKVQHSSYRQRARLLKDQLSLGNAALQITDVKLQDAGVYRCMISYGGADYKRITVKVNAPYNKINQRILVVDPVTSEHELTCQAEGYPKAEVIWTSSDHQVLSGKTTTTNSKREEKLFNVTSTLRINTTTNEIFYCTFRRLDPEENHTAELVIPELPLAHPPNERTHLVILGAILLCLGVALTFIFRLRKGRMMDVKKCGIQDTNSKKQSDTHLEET

B1: tPD1.16 full-length human IgG1 (antibody, V domains shown)
VH: QVQLVESGGGVVQPGRSLRLSCAASGFTFSNYGMHWVRQAPGKGLEWVAVIWYDGTNKFYADSVKGRFTISRDNSKNTLYLQMNSLRAEDTAVYYCATNSDDYWGQGTLVTVSS
VL: AIQMTQSPSSLSASVGDRVTITCRASQDIRNDLGWYQQKPGKAPKLLIYAASLLRSGVPSRFSGSGSGTDFTLTISSLQPEDFATYYCLQDNNYPRTFGQGTKVEIK
EC50 [1]: 2.8 nM

B2: tPDL1.3 full-length human IgG1 (antibody, V domains shown)
VH: QVQLVQSGAEVKKPGASVKVSCKASGFTFTSYDINWVRQATGQGLEWMGWMHPNSGITGYAQKFQGRVTMTRNTSISTAYMELSSLSSEDTAVYFCARYYYVSGSYDYWGQGTLVTVSS
VL: EIVMTQSPATLSLSPGERATLSCWASQSVSSSYLSWYQQKPGQAPRLLIYGASTRATGIPARFSGSGSGTDFTLTISSLQPEDFAVYYCQQDYNLPYTFGQGTKLEIK
EC50 [2]: 0.3 nM

B3: tOX40.24 full-length human IgG1 (antibody, V domains shown)
VH: QVQLVESGGGVVQPGRSLRLSCAASGFTFRSYGMHWVRQAPGKGLEWLAIIWYDGSNKYYADSVKGRLTISRDNSKNTLYLQMNSLRAEDTAVYYCARDTQVAEAGFPHHHYYGMDVWGQGTTVTVSS
VL: not shown
EC50 [3]: 0.7 nM

Source: publication PMC7531523 (mAbs, 2020)
